Consider two substances from patent US20210338848A1, “COMPOSITIONS AND METHODS FOR DIAGNOSING AND TREATING MACROPHAGE-RELATED DISORDERS USING CARBOHYDRATE-BASED MACR[…]” (Cardinal Health 414, LLC, priority 2016, published 2021).

Series [1] concerns the target mannose receptor CD206 (Homo sapiens, UniProt P22897). Particulars: when administered to mammals; no other receptors bind or transduce. The text has this: CD206 is a C-type […] binding protein found on the surface of macrophages.
The conditions of series [2]: used to stage breast cancer and melanoma; cited from earlier work.

Chain of mannose receptor CD206 (P22897 19-1456): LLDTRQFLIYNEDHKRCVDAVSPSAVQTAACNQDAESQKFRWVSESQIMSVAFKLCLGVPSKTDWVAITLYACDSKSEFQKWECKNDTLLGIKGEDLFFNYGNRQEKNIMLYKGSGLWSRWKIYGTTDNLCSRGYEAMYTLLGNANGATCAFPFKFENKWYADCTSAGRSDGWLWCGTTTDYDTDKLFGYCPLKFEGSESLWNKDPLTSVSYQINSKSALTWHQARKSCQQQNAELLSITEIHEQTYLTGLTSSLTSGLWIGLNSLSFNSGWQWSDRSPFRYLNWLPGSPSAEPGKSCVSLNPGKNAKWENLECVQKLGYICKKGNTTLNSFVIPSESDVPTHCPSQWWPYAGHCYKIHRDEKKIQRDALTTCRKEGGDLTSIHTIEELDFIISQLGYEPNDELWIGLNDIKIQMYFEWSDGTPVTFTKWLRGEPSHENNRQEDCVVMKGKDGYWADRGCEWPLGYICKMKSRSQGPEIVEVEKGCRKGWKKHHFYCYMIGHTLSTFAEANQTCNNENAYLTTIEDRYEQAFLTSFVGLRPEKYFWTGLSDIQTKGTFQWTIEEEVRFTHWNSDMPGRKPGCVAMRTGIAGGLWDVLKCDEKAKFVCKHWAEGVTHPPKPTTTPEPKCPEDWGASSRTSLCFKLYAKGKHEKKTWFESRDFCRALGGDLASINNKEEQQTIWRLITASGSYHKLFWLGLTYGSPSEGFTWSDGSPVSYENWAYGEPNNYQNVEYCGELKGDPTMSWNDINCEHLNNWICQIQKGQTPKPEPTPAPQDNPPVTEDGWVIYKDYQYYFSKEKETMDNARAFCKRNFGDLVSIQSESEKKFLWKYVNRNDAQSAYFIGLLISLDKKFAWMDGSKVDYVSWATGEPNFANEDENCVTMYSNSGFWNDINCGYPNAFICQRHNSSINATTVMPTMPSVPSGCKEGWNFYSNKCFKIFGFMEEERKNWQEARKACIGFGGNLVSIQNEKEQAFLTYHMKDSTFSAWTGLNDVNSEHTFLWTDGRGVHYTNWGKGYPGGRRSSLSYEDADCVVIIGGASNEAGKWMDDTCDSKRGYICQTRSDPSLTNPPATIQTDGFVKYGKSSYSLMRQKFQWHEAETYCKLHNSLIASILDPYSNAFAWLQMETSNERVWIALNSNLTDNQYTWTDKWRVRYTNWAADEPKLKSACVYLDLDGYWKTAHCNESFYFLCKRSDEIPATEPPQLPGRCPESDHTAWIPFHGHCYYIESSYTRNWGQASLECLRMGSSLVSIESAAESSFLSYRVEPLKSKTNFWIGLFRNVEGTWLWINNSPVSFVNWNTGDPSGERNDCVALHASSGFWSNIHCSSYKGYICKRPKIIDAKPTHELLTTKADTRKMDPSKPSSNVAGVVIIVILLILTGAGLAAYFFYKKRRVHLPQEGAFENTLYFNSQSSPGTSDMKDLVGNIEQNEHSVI

In the case of “dextran 3-[(2-aminoethyl)thio]propyl 17-carboxy-10,13,16-tris(carboxymethyl)-8-oxo-4-thia-7,10,13,16-tetraazaheptadec-1-yl 3-[[2-[[1-imino-2-(D-mannopyranosylthio) ethyl]amino]ethyl]thio]propyl ether complexes [tilmanocept]”, the receptor binding specificity result in series [1] was “bind exclusively to the mannose receptor CD206”.

Regarding “technetium Tc 99m, dextran 3-[(2-aminoethyl)thio]propyl 17-carboxy-10,13,16-tris(carboxymethyl)-8-oxo-4-thia-7,10,13,16-tetraazaheptadec-1-yl 3-[[2-[[1-imino-2-(D-mannopyranosylthio) ethyl]amino]ethyl]thio]propyl ether complexes [technetium Tc 99m labeled tilmanocept]”, in series [2], the “clearance from injection site” value is recorded as “rapid clearance from an injection site”; the “uptake by distal or second-echelon lymph nodes” value is listed as “low uptake by distal or second-echelon lymph nodes”; the “uptake by sentinel lymph node(s)” value was “rapid and sustained uptake by the sentinel lymph node(s)”.
